Here are results for seven molecules from US20240382610A1 (TALLAC THERAPEUTICS, published 2024).

T1: Human nectin-4-IgV-6His (TNT-252) (human, UniProt Q96NY8 32-147)
T1 construct: entry includes the 6His tag
T1 sequence: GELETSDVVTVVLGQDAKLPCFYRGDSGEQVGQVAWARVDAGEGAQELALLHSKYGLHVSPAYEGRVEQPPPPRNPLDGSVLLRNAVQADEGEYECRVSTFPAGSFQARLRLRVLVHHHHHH

T2: Cyno nectin-4 ECD-6His (TNT-255) (cynomolgus, UniProt Q96NY8 32-349 (human entry))
T2 construct: entry includes the 6His tag
T2 chain: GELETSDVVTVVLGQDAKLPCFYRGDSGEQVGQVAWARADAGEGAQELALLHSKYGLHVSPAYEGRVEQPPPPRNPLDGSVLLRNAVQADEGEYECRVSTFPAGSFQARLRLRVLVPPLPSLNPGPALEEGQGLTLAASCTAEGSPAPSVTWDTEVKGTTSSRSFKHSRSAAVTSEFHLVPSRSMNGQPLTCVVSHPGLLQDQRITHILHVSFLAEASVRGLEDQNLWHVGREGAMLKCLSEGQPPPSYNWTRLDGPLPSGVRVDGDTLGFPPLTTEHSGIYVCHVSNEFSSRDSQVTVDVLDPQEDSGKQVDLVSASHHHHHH

T3: Mouse nectin-4 ECD-6His (TNT-250) (mouse, UniProt Q8R007 31-347)
T3 construct: entry includes the 6His tag; also called mouse nectin-4-LCD
T3 sequence: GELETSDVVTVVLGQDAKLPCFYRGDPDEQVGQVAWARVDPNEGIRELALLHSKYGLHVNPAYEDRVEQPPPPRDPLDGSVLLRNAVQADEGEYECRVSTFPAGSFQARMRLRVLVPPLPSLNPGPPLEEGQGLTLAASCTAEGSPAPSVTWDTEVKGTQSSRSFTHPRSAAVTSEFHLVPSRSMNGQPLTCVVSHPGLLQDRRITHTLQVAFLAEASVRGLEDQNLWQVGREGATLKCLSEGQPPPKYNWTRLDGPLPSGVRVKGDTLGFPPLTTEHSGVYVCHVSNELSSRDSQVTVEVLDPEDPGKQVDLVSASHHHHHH

T4: Human nectin-4 ECD-6His (TNT-175) (human, UniProt Q96NY8 32-349)
T4 construct: the entry holds the extracellular domain with the C-terminal 6His tag
T4 sequence: T2 chain with A39V, V230I

B1: TNT-332 (antibody, V domains shown)
VH: QVQLVQSGAEAKKPGASVRVSCKTSGYTFTNYYIHWVRQAPGQGLEWMGIINPTLDSTSYAQKFQDRVTMTRDTSTNTDYMDLSSLRFEDTAVYYCARSAGFDAFDIWGQGTMVTVSS
VL: DIQLTQSPSFLSASVGDKVTITCRASQGINSYLAWYQQKPGKAPKLLIYSASTLQGGVPSRFSGSGSGTEFTLTISNLQPADFATYCCQQLNSYPFTFGPGTKVDIKR
notes: human IgG1
B2: TNT-334 (antibody, V domains shown)
VH: EVQLVESGGGLVQPGGSLRLSCAASGFTFSRYWMHWVRQAPGKGLVWVSRINSDGSSSNYADSVKGRFTFSRDNAKNTLYLQMNSLRAEDTAVYFCVRDNWYFDYWGQGTLVTVSS
VL: EIVMTQSPATLPVSPGERATLSCRASQSVSINLAWYQQKPGQAPRLLIYGVSTRATGIPARFSGSGSGTEFTLTISGLQSEDFAVYYCQQYNNWPRTFGQGTKVEIKR
notes: human IgG1
B3: TNT-337 (antibody, V domains shown)
VH: EVQLVESGGGLVQPGGSLRLSCAASGFTFSNYDMSWVRQAPGKGLEWVATISSGGSYTYYVDSVKGRFTISRDNAKNSLYLQMNSLRAEDTAVYYCARQELGSYYAMDYWGQGTTVTVSS
VL: DIVMTQTPLSLPVTPGEPASISCRSSQSIVHSNANTYLEWYLQKPGQSPQLLIYKVSNRFSGVPDRFSGSGSGTDFTLKISRVEAEDVGVYYCFQGSHVPYTFGGGTKVEIKR
notes: human IgG1
B4: TNT-331 (antibody, V domains shown)
VH: QVHLQESGPGLVKPSETLSLTCTVSGGSIRSYYWSWIRQPAGKGLEWIGRIYTSGSTNYNPSLKSRVTMSVDTSKNRLSLKLSSVTAADTAVYYCAKENWGPSFDYWGQGTLVTVSS
VL: QSVLTQPPSVSAAPGQKVTISCSGSSSNIGNNYVSWYQQLPGTAPKLLIYDNNKRPSGIPDRFSGSKSGTSATLGITGLQTGDEADYYCGTWDTSLSSGWLFGGGTKLTVLG
notes: human IgG1
B5: TNT-333 (antibody, V domains shown)
VH: QVQLQESGPGLVKPSETLSLTCTISGGSISSYYWSWIRQPPGKGLEWIGYIFYIGNTNYYPSLKSRVTISVDASKNQFSLKLSSVTAADTAVYYCARSYPYWYFDLWGRGTLVTVSS
VL: B4 VL with Y50S, T94S, S98A, W100V, L101V
notes: human IgG1
B6: TNT-336 (antibody, V domains shown)
VH: KVQLVESGGGLVQPGGSLRLSCEASGFTFSNYWMHWVRQVPGEGLVWVSRLNNGGTSTRYADSVKSRFTISRDNAKNTLYLQMNSLRAEDTAVYYCVRDWYFDLWGRGTLVTVSS
VL: QLVLTQSPSASASLGASVKLTCTLSSGHSFYAIAWHQQQPEKGPRYLMQVNSNGSHNKGDGIPDRFSGSSSGAERYLTISSLQSEDEADYYCQSWDTDIWVFGGGTKLTVLG
notes: human IgG1
B7: TNT-335 (antibody, V domains shown)
VH: QVQLQESGPGLVKPSETLSLTCTVSGGSISSYYWSWIRQPPGKGLEWIGYIHYSGISNYNPSLKSRVAISLDTSNNHFSLKLTSLTAADTAVYFCARGSYWFDPWGQGTLVTVSS
VL: QSVLTQPPSASGTPGQRVTISCSGSSSNIGSDYIYWYQQLPGTAPKLLIYSNHQRPSGVPDRFSGSKSGTSASLAISGLRSEDEADYYCAAWEDSLSGPIFGGGTKLTVLG
notes: human IgG1

Changes are numbered by the printed parent chain.

For the first experiment, the target named is T1, Human nectin-4-IgV-6His (TNT-252). Briefly: SPR Biacore 8K, mAb on protein A. The procedure:
(§1) The running buffer was 10 mM HEPES, pH 7.4, 150 mM NaCl, 3 mM EDTA, 0.05% (v/v) Surfactant P20 (HBS-EP+). […] The nectin-4 analytes were injected in either single-cycle kinetics or multi-cycle kinetics mode at nominal starting concentrations of 300 nM or 900 nM with 3-fold serial dilutions. Association times were monitored for 120 s, and dissociation times were monitored 1800 s at 30 μL/min flow rate. The surfaces were regenerated with 10 mM glycine at pH1.7 or 75 mM phosphoric acid at pH1.6 for two pulses of 15 s at 30 μL/min flow rate.
(§2) The data were processed and analyzed with Biacore 8K Evaluation Software Version 3.0.12.15655 (Cytiva, Global Life Sciences Solutions USA LLC, Marlborough, MA). […] The responses from the nearest buffer blank injection were then subtracted from the reference subtracted data (2-1) to yield double-referenced data. These double-reference data were fit to a simple 1:1 Langmuir binding model with mass transport to determine the apparent association (ka) and dissociation rate constants (kd). The apparent equilibrium dissociation constant or affinity constant was then calculated based on their ratio as (KD=kd/ka).
(In general: SPR reads the build-up and loss of mass on a sensor chip optically.)
As for B1, the binding result is listed as “no binding (tested: up to 300 or 900 nM analyte)”.
Broadly, the Kd is the free concentration of one partner at which half of the binding sites on the other are occupied at equilibrium, for simple one-to-one binding. Higher therefore signals a looser complex. Take B2: the Kd stood at 46.3 nM.
The molecule B3 showed a Kd of 195 nM.
In the case of B4, the binding result was “no binding (tested: up to 300 or 900 nM analyte)”.
For B5, the binding result was “no binding (tested: up to 300 or 900 nM analyte)”.
B6 showed a Kd of 104 nM.
The same measure, in the same setting: as for B7, the figure is 0.985 nM.

The target of the next experiment is T2, Cyno nectin-4 ECD-6His (TNT-255). The experiment in a line: SPR Biacore 8K, mAb on protein A. As for the experimental part:
as §1, §2
B1 gave a Kd of 7.2 nM.
Still for that read-out and setting: as for B2, the figure is 95.3 nM; as for B3, 286 nM; as for B4, 32.8 nM.
Same read-out and setting: as for B5, the figure is 7.43 nM.
On to B6, for which the binding result was “no binding (tested: up to 300 or 900 nM analyte)”.
B7: the Kd was determined as 1.28 nM.

Another experiment deals with T3, Mouse nectin-4 ECD-6His (TNT-250). Briefly: SPR Biacore 8K, mAb on protein A. The procedure:
as §1, §2
Consider B1, for which the binding result is listed as “no binding (tested: up to 300 or 900 nM analyte)”.
With B2, the binding result is given as “no binding (tested: up to 300 or 900 nM analyte)”.
On to B3, for which the Kd amounted to 318 nM.
Turning to B4, the binding result is given as “no binding (tested: up to 300 or 900 nM analyte)”.
As to B5, the binding result is given as “no binding (tested: up to 300 or 900 nM analyte)”.
Same read-out and setting: as for B6, the entry is “no binding (tested: up to 300 or 900 nM analyte)”; as for B7, “no binding (tested: up to 300 or 900 nM analyte)”.

For another experiment, the target named is T4, Human nectin-4 ECD-6His (TNT-175). The experiment in a line: SPR Biacore 8K, mAb on protein A. As for the experimental part:
as §1, §2
B1 registered a Kd of 7.6 nM.
On the same count and under the same terms, with B2 the figure was 71.5 nM; with B3, 217 nM.
On the same count and under the same terms, as for B4, the figure is 87.4 nM; as for B5, 6.18 nM.
Still for that read-out and setting: with B6 the figure was 111 nM; with B7, 1.83 nM.
